The source of these data is patent US20120316071A1.

The target in experiment [1] is rHuman Notch-1/Fc Chimera, CF (R&D Systems Cat#3647-TK) (human) (UniProt P46531). Put plainly: ECL multispot (MSD) assay, antigen spotted on plate, 20 nM Fab.
The target in experiment [2] is rHuman CD44/Fc Chimera, CF (R&D Systems Cat#3660-CD) (human) (UniProt P16070). Described as above.
The target of experiment [3] is rHuman IGF-1 sR, CF (R&D Systems Cat#391-GR) (human) (UniProt P08069). The experiment is described as above.
For experiment [4], the target named is rHuman EGF R/Fc Chimera, CF (R&D Systems Cat#344-ER) (human) (UniProt P00533). The experiment is described as above.
In experiment [5] the target is rHuman Erythropoietin R/Fc Chimera, CF (R&D Systems Cat#963-ER) (human) (UniProt P19235). Put plainly: ECL multispot (MSD) binding assay, antigens spotted on plate, 20 nM Fab.
Experiment [6] concerns the target rHuman P-Cadherin/Fc Chimera, CF (R&D Systems Cat#861-PC) (human) (UniProt P22223). Described as above.
Experiment [7] has as its target rHuman EGF R/Fc Chimera, CF (R&D Systems Cat#344-ER) (human) (UniProt P00533). Put plainly: ECL (MSD) multispot binding assay, antigen spotted on plate, 20 nM Fab.
For experiment [8], the target named is rHuman Notch-1/Fc Chimera, CF (R&D Systems Cat#3647-TK) (human) (UniProt P46531). The description is as above.
In experiment [9] the target is rHuman ErbB2/Fc Chimera, CF (R&D Systems Cat#1129-ER) (human) (UniProt P04626). The experiment is described as above.
In experiment [10] the target is rHuman Erythropoietin R/Fc Chimera, CF (R&D Systems Cat#963-ER) (human) (UniProt P19235). Kind of experiment: Multispot ECL (MSD) assay, antigen spotted on plate, Fab at 421.12 nM; blank spot 639.
Experiment [11] shares this target. Put plainly: Multispot ECL (MSD) assay, antigen spotted on plate, Fab at 42.112 nM; blank spot 323.
For experiment [12], the target named is rHuman ErbB2/Fc Chimera, CF (R&D Systems Cat#1129-ER) (human) (UniProt P04626). Put plainly: Multispot ECL (MSD), antigen spotted on plate, Fab 12 nM; blank spot 573.
In experiment [13] the target is Recombinant Human DLL4 (R&D Systems Cat#1506-D4/CF) (human) (UniProt Q9NR61). The description is as above.
In experiment [14] the target is rHuman Notch-1/Fc Chimera, CF (R&D Systems Cat#3647-TK) (human) (UniProt P46531). Described as above.
Experiment [15] addresses rHuman HGF R/c-MET/Fc Chimera, CF (R&D Systems Cat#358-MT/CF) (human) (UniProt P08581). The experiment is described as above.
Experiment [16] concerns the target rHuman ErbB2/Fc Chimera, CF (R&D Systems Cat#1129-ER) (human) (UniProt P04626). Kind of experiment: Multispot ECL (MSD), antigen spotted on plate, Fab 120 nM; blank spot 6749.
Experiment [17] has as its target Recombinant Human DLL4 (R&D Systems Cat#1506-D4/CF) (human) (UniProt Q9NR61). The experiment is described as above.
Experiment [18] addresses rHuman Notch-1/Fc Chimera, CF (R&D Systems Cat#3647-TK) (human) (UniProt P46531). The description is as above.
Experiment [19] has as its target rHuman HGF R/c-MET/Fc Chimera, CF (R&D Systems Cat#358-MT/CF) (human) (UniProt P08581). Described as above.
Experiment [20] concerns the target rHuman ErbB2/Fc Chimera, CF (R&D Systems Cat#1129-ER) (human) (UniProt P04626). Put plainly: Multispot ECL (MSD), antigen spotted on plate, Fab 1.2 nM; blank spot 227.
For experiment [21], the target named is Recombinant Human DLL4 (R&D Systems Cat#1506-D4/CF) (human) (UniProt Q9NR61). Described as above.
Experiment [22] deals with rHuman Notch-1/Fc Chimera, CF (R&D Systems Cat#3647-TK) (human) (UniProt P46531). Described as above.
Experiment [23] addresses rHuman HGF R/c-MET/Fc Chimera, CF (R&D Systems Cat#358-MT/CF) (human) (UniProt P08581). Described as above.
In experiment [24] the target is rHuman ErbB2/Fc Chimera, CF (R&D Systems Cat#1129-ER) (human) (UniProt P04626). Put plainly: Multispot ECL (MSD), antigen spotted on plate, Fab 0.12 nM; blank spot 264.
Experiment [25] concerns the target Recombinant Human DLL4 (R&D Systems Cat#1506-D4/CF) (human) (UniProt Q9NR61). The experiment is described as above.
The target in experiment [26] is rHuman Notch-1/Fc Chimera, CF (R&D Systems Cat#3647-TK) (human) (UniProt P46531). The experiment is described as above.
For experiment [27], the target named is rHuman HGF R/c-MET/Fc Chimera, CF (R&D Systems Cat#358-MT/CF) (human) (UniProt P08581). The experiment is described as above.
The target of experiment [28] is Recombinant Human DLL4 (R&D Systems Cat#1506-D4/CF) (human) (UniProt Q9NR61). Put plainly: ECL (MSD) multispot binding assay, antigen spotted on plate, Fab in solution.
Experiment [29] shares this target. Kind of experiment: ECL multispot (MSD), antigen spotted, Fab in solution.
Experiment [30] addresses rHuman Notch-1/Fc Chimera, CF (R&D Systems Cat#3647-TK) (human) (UniProt P46531). Described as above.
In experiment [31] the target is rHuman Erythropoietin R/Fc Chimera, CF (R&D Systems Cat#963-ER) (human) (UniProt P19235). The experiment is described as above.
Experiment [32] addresses rHuman HGF R/c-MET/Fc Chimera, CF (R&D Systems Cat#358-MT/CF) (human) (UniProt P08581). The experiment is described as above.
The target in experiment [33] is rHuman P-Cadherin/Fc Chimera, CF (R&D Systems Cat#861-PC) (human) (UniProt P22223). The experiment is described as above.
Experiment [34] addresses rHuman CD44/Fc Chimera, CF (R&D Systems Cat#3660-CD) (human) (UniProt P16070). Described as above.
The target of experiment [35] is rHuman IGF-1 sR, CF (R&D Systems Cat#391-GR) (human) (UniProt P08069). Described as above.
For experiment [36], the target named is rHuman EGF R/Fc Chimera, CF (R&D Systems Cat#344-ER) (human) (UniProt P00533). The description is as above.
Experiment [37] concerns the target rHuman IGF-1 sR, (IGF-1 sR), CF (R&D Systems Cat#391-GR) (human) (UniProt P08069). Kind of experiment: Multispot ECL (MSD), antigen spotted on plate, Fab 52.5 nM; blank spot 467.
Experiment [38] shares this target. Put plainly: Multispot ECL (MSD), antigen spotted on plate, Fab 210 nM; blank spot 833.
Experiment [39] has the same target. Kind of experiment: Multispot ECL (MSD), antigen spotted on plate, Fab […]; blank spot 376.
For experiment [40] the target is unchanged. Kind of experiment: Multispot ECL (MSD), antigen spotted on plate, Fab […]; blank spot 359.

For “Fab VH3-23_IGHD2-21*01>3_IGHJ6*01 H100E/S108P K65A & V2-13_IGLJ2*01”, the ECL signal/blank ratio (read-out not given) in [1] came out at 3; in [2] it was 1.7; in experiment [3], 1.4; in [4] it was 7.1.

With “Fab VH3-23_IGHD2-21*01>3_IGHJ6*01 H100E/S108P/Y113G Y110H & V2-13_IGLJ2*01”, the ECL multispot signal (ratio to blank; column not labelled) worked out at 3.7 in [5] and 2.9 in experiment [6].

“Fab VH3-23_IGHD2-21*01>3_IGHJ6*01 H100E/S108P/Y113G Y112R & V2-13_IGLJ2*01” gave an ECL multispot value in experiment [7] of 3.7.

In [8], “Fab VH3-23_IGHD2-21*01>3_IGHJ6*01 H100E/S108P/Y113G Y114E & V2-13_IGLJ2*01” returned an ECL multispot value of 3.3.

Substance “Fab VH3-23_IGHD2-21*01>3_IGHJ6*01 H100E/S108P/Y113G Y114H & V2-13_IGLJ2*01” showed an ECL multispot value in experiment [8] of 3.3.

“Fab VH3-23_IGHD2-21*01>3_IGHJ6*01 H100E/S108P/Y113G Y114N & V2-13_IGLJ2*01” displayed an ECL multispot value in experiment [9] of 3.5.

On to “Fab VH3-23_IGHD2-21*01>3_IGHJ6*01 H100E/S108P/Y113G/Y111H & V2-13_IGLJ2*01”, for which the ECL signal/blank ratio in experiment [9] came out at 3; in experiment [7], 2.9.

In the case of “Fab VH3-23_IGHD3-10*01>1′_IGHJ3*01 & O12_IGKJ1*01”, the ECL signal in [10] was 1300; in [11], 759.

As for “Fab VH3-23_IGHD3-10*01>3_IGHJ6*01 & O12_IGKJ1*01”, the ECL signal in experiment [12] is 4360; in experiment [13], 2510; in experiment [14], 2580; in [15], 2700; in experiment [16] it was 17300; in experiment [17], 20600. Further, the ECL signal stood at 14400 in experiment [18]; 15900 in [19]; 677 in [20]; 319 in experiment [21]; 660 in [22]; 412 in experiment [23]. Moreover, the ECL signal came out at 287 in experiment [24], 210 in [25], 218 in experiment [26] and 287 in experiment [27].

In the case of “Fab VH3-23_IGHD3-10*01>3_IGHJ6*01 R104A & O12_IGKJ1*01”, the ECL multispot value (looks like signal/blank ratio; not labelled) in [28] was 2.7.

As to “Fab VH3-23_IGHD3-10*01>3_IGHJ6*01 Y112Q & O12_IGKJ1*01”, the ECL signal/blank ratio in experiment [29] is 1.8; in experiment [30] it was 1.7; in experiment [31], 2.4; in experiment [32], 1.4; in [33], 3; in [34], 1.4. The ECL signal/blank ratio is 1.6 in experiment [35] and 1.2 in [36].

For “Fab VH3-23_IGHD3-10*01>3_IGHJ6*01 Y115G & O12_IGKJ1*01”, the ECL multispot value (looks like signal/blank ratio; not labelled) in experiment [28] came out at 2.7.

As for “Fab VH4-31_IGHD2-15*01_IGHJ2*01 & V1-4_IGLJ4*01”, the ECL signal at 52.5 nM Fab in experiment [37] turned out to be 911. In experiment [38], this substance returned an ECL signal at 210 nM Fab of 1430. In experiment [39], this substance yielded an ECL signal at 13.1 nM Fab of 814. In addition, the ECL signal at 3.3 nM Fab in [40] amounted to 743.
